Broadly, the Kd is a measure of binding affinity in units of concentration.

Our source for the Kd and ΔTm of pcdh15 values is publication PMC5736220.

The target in one experiment is pcdh15 (Mus musculus) (UniProt Q99PJ1). The experiment is described as follows: ITC. Conditions: cited from earlier work.
The target of experiment [1] is protocadherin-15 EC1+2 I22A, His-tagged (mouse) (UniProt Q99PJ1). The experiment is described as follows: thermal scanning (thermal stability shift assay with SYPRO orange); pcdh15 fixed at 0.1 mg/mL (~4 μM), cdh23 0.1 to 0.5 mg/mL (~4 to 20 μM; cdh23:pcdh15 1:1 to 5:1); SEC buffer (20 mM Tris-HCl pH 7.5, 150 mM KCl, 50 mM NaCl, 2 mM CaCl2); 10 to 95°C in 0.2°C steps, 5 s equilibration; read-out: shift of the Tm of pcdh15 (ΔTm).

As for cdh23 (from UniProt Q99PF4), the dissociation constant Kd with pcdh15 (Mus musculus) is 2900 nM.
For the substance “cadherin-23 EC1+2, wild type, His-tagged (from UniProt Q99PF4 24-228) (domain or fragment)”, in experiment [1], the ΔTm of pcdh15 at cdh23:pcdh15 1:1 was 0.5 °C, the ΔTm of pcdh15 at cdh23:pcdh15 2:1 was found to be 0.7 °C, the ΔTm of pcdh15 at cdh23:pcdh15 3:1 was determined as 1 °C and the ΔTm of pcdh15 at cdh23:pcdh15 4:1 amounted to 1.1 °C. In addition, the ΔTm of pcdh15 at cdh23:pcdh15 5:1 in experiment [1] is 1 °C.
